Assay results: the Human Domainome abundance scans (Beltran et al. 2025)
± gives the uncertainty stated by the source.

B1: Tudor domain-containing protein 3, residues 554 to 611; numbered along this chain, Q9H7E2 (parent)
chain: KMWKPGDECFALYWEDNKFYRAEVEALHSSGMTAVVKFIDYGNYEEVLLSNIKPIQTE

Variants of: B1
Assay: abundance fitness (aPCA) (normalised: wild type 0, dead -1); higher = more abundant; growth selection in yeast, the domain comes from the species named
Settings: Homo sapiens

Abundance fitness of substitutions, site by site:
V36: H -0.838 ± 0.32; A -0.92 ± 0.097; D -0.996 ± 0.15; C -0.584 ± 0.13; R -0.88 ± 0.1; L -0.571 ± 0.067; Q -0.73 ± 0.14; T -0.777 ± 0.12; N -1.11 ± 0.3; W -0.833 ± 0.12
F38: A -0.878 ± 0.091; R -0.894 ± 0.081; E -0.997 ± 0.13; Y -0.479 ± 0.13; P -0.941 ± 0.21; C -0.935 ± 0.13; T -0.987 ± 0.16; Q -0.946 ± 0.13; K -1.13 ± 0.22; I -0.852 ± 0.26; D -0.764 ± 0.17; H -0.94 ± 0.23; N -0.802 ± 0.2; M -0.722 ± 0.15; G -0.845 ± 0.065; W -0.416 ± 0.074; V -0.787 ± 0.077
G31: T 0.02 ± 0.09; A 0.015 ± 0.076; C -0.12 ± 0.069; N -0.057 ± 0.14; H -0.099 ± 0.088; Q -0.043 ± 0.17; R -0.033 ± 0.055; S -0.082 ± 0.062; Y -0.269 ± 0.13; P -0.48 ± 0.086; M -0.043 ± 0.11; K -0.148 ± 0.1; L -0.267 ± 0.075; V -0.45 ± 0.067; D -0.198 ± 0.083; W -0.658 ± 0.099; F -0.558 ± 0.12; E -0.092 ± 0.093
L48: T -0.218 ± 0.084; I -0.408 ± 0.13; G -0.479 ± 0.069; F -0.224 ± 0.11; P -0.077 ± 0.08; W -0.356 ± 0.071; M -0.113 ± 0.069; A -0.049 ± 0.07; V -0.354 ± 0.062; E -0.136 ± 0.089; H -0.152 ± 0.1; K -0.1 ± 0.081; Y -0.247 ± 0.12; D -0.177 ± 0.098; R -0.197 ± 0.053; N -0.104 ± 0.11; Q -0.008 ± 0.09
K37: D -0.74 ± 0.14; R -0.064 ± 0.058; Y -0.098 ± 0.14; L -0.719 ± 0.096; I -0.968 ± 0.25; F -0.218 ± 0.15; G -0.833 ± 0.065; E -0.757 ± 0.094; C -0.612 ± 0.15; Q -0.359 ± 0.093; H -0.32 ± 0.14; N -0.567 ± 0.17; A -0.996 ± 0.1; P -0.948 ± 0.14; W -0.635 ± 0.085; M -0.741 ± 0.11; T -0.923 ± 0.14; S -0.616 ± 0.088
M32: Y 0.195 ± 0.12; F -0.005 ± 0.081; N 0.003 ± 0.091; V -0.054 ± 0.055; E 0.009 ± 0.083; C -0.098 ± 0.082; R -0.009 ± 0.055; Q 0.046 ± 0.078; H 0.086 ± 0.11; I -0.24 ± 0.088; D -0.057 ± 0.097; S 0.02 ± 0.065; P -0.266 ± 0.081; L -0.045 ± 0.057; W -0.137 ± 0.07; G -0.031 ± 0.055; T 0.046 ± 0.075; A -0.036 ± 0.068; K -0.165 ± 0.091
T33: R -0.088 ± 0.052; S 0.012 ± 0.059; P -1.03 ± 0.14; W -0.321 ± 0.071; M -0.246 ± 0.11; H -0.126 ± 0.089; L -0.331 ± 0.065; Q -0.287 ± 0.094; V -0.232 ± 0.078; D -0.877 ± 0.15; C -0.14 ± 0.067; Y -0.184 ± 0.087; I -0.276 ± 0.094; E -0.377 ± 0.092; G -0.444 ± 0.068; A -0.121 ± 0.075
N43: G -0.162 ± 0.045; E -0.079 ± 0.061; Y 0.003 ± 0.15; M -0.108 ± 0.071; R 0.091 ± 0.048; F -0.052 ± 0.19; P -0.563 ± 0.11; C -0.059 ± 0.085; T 0.073 ± 0.078; S -0.045 ± 0.069; H -0.073 ± 0.17; L 0.01 ± 0.064; K 0.093 ± 0.094; V 0.035 ± 0.057; W -0.059 ± 0.058; D -0.259 ± 0.14
S30: W -0.462 ± 0.097; L -0.37 ± 0.073; D -0.179 ± 0.074; Q -0.254 ± 0.11; F -0.435 ± 0.097; P -0.331 ± 0.094; K -0.172 ± 0.094; Y -0.463 ± 0.1; N -0.04 ± 0.099; V -0.501 ± 0.063; A -0.192 ± 0.061; T -0.119 ± 0.071; E -0.143 ± 0.081; G -0.132 ± 0.052; C -0.109 ± 0.089; M -0.282 ± 0.098; I -0.322 ± 0.12
V35: N -0.211 ± 0.12; P -0.973 ± 0.14; L -0.011 ± 0.063; G -0.384 ± 0.057; E -0.227 ± 0.087; T 0.104 ± 0.069; M -0.079 ± 0.083; C -0.162 ± 0.088; S -0.032 ± 0.071; R 0.129 ± 0.054; W -0.087 ± 0.069; D -0.426 ± 0.12; F -0.186 ± 0.1; H -0.403 ± 0.15; A -0.277 ± 0.074; I -0.16 ± 0.13; Q 0.058 ± 0.081; Y -0.092 ± 0.1; K 0.104 ± 0.082
